This assay has as its target IL-18BP (human). Description: BLI. (In general: In BLI a coated tip is dipped into the sample, and binding shifts an interference pattern.)

B1: IL18R_VHHα2β15 (antibody, V domains shown)
V domain 1: DVQLQESGGGLVQAGGSLRLSCAASGFTLLDSYDIGWFRQAPGKKREEVSCISSSGGKSTYYADSVKGRFTISRDNANNTVYLQMNSLKPEDTAVYYCAADGAEGFWSCQSGGYDYWGQGTQVTVSS
V domain 2: DVQLQESGGGLVQPGGSLRLSCAASGRFFTINAMGWYRQTPGKQRELVAAITSDGSTTYQDSVKGRFTISRDNANRTANLYMNSLKSEDTAVYYCNADGRFNDNGYVKNFNIWGQGTQVTVSS
For the molecule B1, the binding result is reported as “no binding”.
